# From PMC4682968, “Studies on the Glutathione-Dependent Formaldehyde-Activating Enzyme from Paracoccus denitrificans” (PLoS ONE, 2015)
# B1: glutathione-dependent formaldehyde-activating enzyme (GFA) from Paracoccus denitrificans, wild type, non-tagged (enzyme)
# chain: GHMVDTSGVKIHPAVDNGIKPAQPGFAGGTLHCKCSTNPVRVAVRAQTAHNHVCGCTKCWKPEGAIFSQVAVVGRDALEVLEGAEKLEIVNAEAPIQRHRCRDCGVHMYGRIENRDHPFYGLDFVHTELSDEDGWSAPEFAAFVSSIIESGVDPSRMEAIRARLRELGLEPYDALSPPLMDAIATHIAKRSGALAA
# notes: an additional glycine residue and a histidine residue left on the N-terminus after TEV protease removal of the His-Tag; Expressed from a modified pET16b plasmid with a TEV site between the His-Tag and the insert; also called GFA WT; wild type non-tagged GFA; not shown: His-Tag, N-terminal, cleaved
# Biological target: the molecule itself
# Assay: SEC; analytical size-exclusion chromatography of wild type non-tagged GFA, calibrated with standard protein samples; apparent Mw = 42 kDa
protein,measurement,value
B1,stoichiometry N,2
